T1: human Nectin-4 (human, UniProt Q96NY8 32-510)
T1 construct: whole, on cells; Cell-surface target of the FACS, endocytosis and proliferation assays (CHO-huNectin4 S8 cells, BT474 cells); the assay field says which cells; also called huNectin4; PVRL4
T1 sequence (looked up): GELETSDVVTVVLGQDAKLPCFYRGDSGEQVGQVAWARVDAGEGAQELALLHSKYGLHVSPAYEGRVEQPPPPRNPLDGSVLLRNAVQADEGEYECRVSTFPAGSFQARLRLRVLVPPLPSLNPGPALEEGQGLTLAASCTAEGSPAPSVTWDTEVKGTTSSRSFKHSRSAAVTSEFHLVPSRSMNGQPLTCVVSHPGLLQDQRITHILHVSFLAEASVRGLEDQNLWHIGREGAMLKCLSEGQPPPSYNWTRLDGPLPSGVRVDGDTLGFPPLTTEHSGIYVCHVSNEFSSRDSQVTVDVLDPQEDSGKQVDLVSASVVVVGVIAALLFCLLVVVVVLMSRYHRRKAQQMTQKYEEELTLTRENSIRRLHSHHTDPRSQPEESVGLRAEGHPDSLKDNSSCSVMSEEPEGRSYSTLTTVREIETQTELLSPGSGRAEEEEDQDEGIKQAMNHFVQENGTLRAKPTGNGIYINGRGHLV


Columns and labels:
human Nectin-4 [1] = target: T1, human Nectin-4; test: FACS on BT474 cells
Method: The solutions of different concentrations were added to 384-well plates, 10 µl per well.
BT474 cells (breast cancer cells) expressing Nectin-4 on the cell surface were collected by centrifugation at 100 g at room temperature for 5 minutes, and then the cells were washed with PBS containing 0.5% BSA once and were centrifuged at 100 g at room temperature for 5 minutes. […] After incubation at 4° C. for 1 hour, fluorescently labeled goat anti-human IgG secondary antibody was added. After continued incubation at 4° C. for 1 hour, mean fluorescence readings of the cell populations were analyzed by a flow cytometer.
The experiment results of the binding of engineered humanized molecules of the present disclosure to BT474 cells by FACS assay are shown in panels 3B and 3C in FIG. 3 and Tables 6 and 7.

human Nectin-4 [2] = target: T1, human Nectin-4; test: cell-based or functional assay

| Binder | EC50 (human Nectin-4 [1]) | Endocytosis efficiency (%) (human Nectin-4 [2]) |
| --- | --- | --- |
| 42D20 hz00 (antibody, V domains shown, Humanized) VH: QVQLQESGPGLVKPSETLSLTCTVSGFSLIDYGVSWIRQPPGKGLEWIGVIWGDGKIYYNSVLKSRVTISVDTSKNQFSLKLSSVTAADTAVYYCARQGGLLFYAMDYWGQGTLVTVSS VL: DIVMTQSPDSLAVSLGERATINCKSSQSLLNSYSQKNYLAWYQQKPGQPPKLLIYFASTRESGVPDRFSGSGSGTDFTLTISSLQAEDVAVYYCQQHYNTPFTFGAGTKLELKR | 1.34 µg/mL | 39.1% |
| 42D20 hz03 (antibody, V domains shown, Humanized) VH: QVQLQESGPGLVKPSETLSLTCTVSGFSLIDYGVSWIRQPPGKGLEWIGVIWGDGKIYYNSVLKSRVTISVDTSKNQFSLKLSSVTAADTAVYYCARQGGLLFYAMDYWGQGTLVTVSS VL: DIVMTQSPDSLAVSLGERATINCKSSQSLLNTYSQKNYLAWYQQKPGQSPKLLIYFASTRESGVPDRFSGSGSETDFTLTISSLQAEDLAVYFCQQHYNTPFTFGAGTKLELKR | 0.0676 µg/mL | 41.1% |
| 42D20 hz02 (antibody, V domains shown, Humanized) VH: QVQLQESGPGLVKPSETLSLTCTVSGFSLIDYGVSWIRQPPGKGLEWIGVIWGDGKIYYNSVLKSRVTISVDTSKNQFSLKLSSVTAADTAVYYCARQGGLLFYAMDYWGQGTLVTVSS VL: DIVMTQSPDSLAVSLGERATINCKSSQSLLYSYSQKNYLAWYQQKPGQSPKLLIYFASTRESGVPDRFSGSGSETDFTLTISSLQAEDLAVYFCQQHYNTPFTFGAGTKLELKR | 0.112 µg/mL | – |
| 42D20 hz01 (antibody, V domains shown, Humanized) VH: QVQLQESGPGLVKPSETLSLTCTVSGFSLIDYGVSWIRQPPGKGLEWIGVIWGDGKIYYNSVLKSRVTISVDTSKNQFSLKLSSVTAADTAVYYCARQGGLLFYAMDYWGQGTLVTVSS VL: DIVMTQSPDSLAVSLGERATINCKSSQSLLNSYSQKNYLAWYQQKPGQSPKLLIYFASTRESGVPDRFSGSGSETDFTLTISSLQAEDLAVYFCQQHYNTPFTFGAGTKLELKR | 0.132 µg/mL | 41.5% |

The next lines start with the values.

| EC50 (human Nectin-4 [1]) | Endocytosis efficiency (%) (human Nectin-4 [2]) | Binder |
| --- | --- | --- |
| 0.0503 µg/mL | 45% | 42D20 hz23 (antibody, V domains shown, Humanized) VH: QVQLQESGPGLVKPSETLSLTCTVSGFSLIDYGVSWIRQPPGKGLEWIGVIWGEGKIYYNSVLKSRVTISKDNSKSQVSLKLSSVTAADTAVYYCAKQGGLLFYAMDYWGQGTLVTVSS VL: DIVMTQSPDSLAVSLGERATINCKSSQSLLNTYSQKNYLAWYQQKPGQSPKLLIYFASTRESGVPDRFSGSGSETDFTLTISSLQAEDLAVYFCQQHYNTPFTFGAGTKLELKR |
| 0.285 µg/mL | 43.9% | 42D20 hz21 (antibody, V domains shown, Humanized) VH: QVQLQESGPGLVKPSETLSLTCTVSGFSLIDYGVSWIRQPPGKGLEWIGVIWGEGKIYYNSVLKSRVTISKDNSKSQVSLKLSSVTAADTAVYYCAKQGGLLFYAMDYWGQGTLVTVSS VL: DIVMTQSPDSLAVSLGERATINCKSSQSLLNSYSQKNYLAWYQQKPGQSPKLLIYFASTRESGVPDRFSGSGSETDFTLTISSLQAEDLAVYFCQQHYNTPFTFGAGTKLELKR |
| – | 42% | 42D20 hz20 (antibody, V domains shown) VH: QVQLQESGPGLVKPSETLSLTCTVSGFSLIDYGVSWIRQPPGKGLEWIGVIWGEGKIYYNSVLKSRVTISKDNSKSQVSLKLSSVTAADTAVYYCAKQGGLLFYAMDYWGQGTLVTVSS VL: DIVMTQSPDSLAVSLGERATINCKSSQSLLNSYSQKNYLAWYQQKPGQPPKLLIYFASTRESGVPDRFSGSGSGTDFTLTISSLQAEDVAVYYCQQHYNTPFTFGAGTKLELKR |

Reference: patent publication US20230265183A1 (MABWELL SHANGHAI BIOSCIENCE, published 2023)
